This note sets out measurements from the supplement of paper PMC10567573.

B1: GMCL1 (parent)
chain: RPDTGDDAAGHGFCYCAGSHKRKR
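Note: lentivirally expressed fusions sorted by FACS into six bins by GFP to DsRed ratio, PSI derived from sequencing read proportions per bin multiplied by bin number.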

In the data set the parent is B1. The data set can be described thus: protein stability index of a GFP-peptide fusion (GPS, HEK-293T) (PSI 1-6); higher = more stable. Conditions: c terminus: a fixed tail appended.
As to RPDTGDDAAGHGFCYCAGSVKRKR, the protein stability index came to 2.79.
Turning to RPDTGDDAAGHGFCYCAGSYKRKR, the protein stability index was 3.12.
With RPDTGDDAAGHGFCYCAGSEKRKR, the protein stability index worked out at 3.3.
For RPDTGDDAAGHGFCYCAGSSKRKR the value was 3.95.
Consider RPDTGDDAAGHGFCYCAGSCKRKR, for which the protein stability index was 3.26.
Consider RPDTGDDAAGHGFCYCAGSRKRKR, for which the protein stability index was 3.31.
As to RPDTGDDAAGHGFCYCAGSNKRKR, the protein stability index amounted to 3.04.
For the variant RPDTGDDAAGHGFCYCAGSWKRKR, the protein stability index is 2.62.
For the variant RPDTGDDAAGHGFCYCAGSQKRKR, the protein stability index worked out at 3.59.
As for RPDTGDDAAGHGFCYCAGSFKRKR, the protein stability index was 3.24.
As for RPDTGDDAAGHGFCYCAGSIKRKR, the protein stability index was 3.9.
Take RPDTGDDAAGHGFCYCAGSLKRKR: the protein stability index worked out at 3.18.
As for RPDTGDDAAGHGFCYCAGSTKRKR, the protein stability index stood at 3.05.
For RPDTGDDAAGHGFCYCAGSKKRKR, the protein stability index was 4.09.
The figure for RPDTGDDAAGHGFCYCAGSMKRKR is 3.03.
Regarding RPDTGDDAAGHGFCYCAGSAKRKR, the protein stability index was found to be 3.15.
RPDTGDDAAGHGFCYCAGSPKRKR: the protein stability index amounted to 2.85.
Regarding RPDTGDDAAGHGFCYCAGSDKRKR, the protein stability index turned out to be 3.35.
Consider RPDTGDDAAGHGFCYCAGSGKRKR, for which the protein stability index came to 3.41.
RPDTGDDAAGHGFCYCAQSHKRKR: the protein stability index is 3.12.
With RPDTGDDAAGHGFCYCAFSHKRKR, the protein stability index was determined as 2.7.
For RPDTGDDAAGHGFCYCAWSHKRKR the value was 2.09.
As for RPDTGDDAAGHGFCYCAKSHKRKR, the protein stability index was determined as 3.58.
Take RPDTGDDAAGHGFCYCAVSHKRKR: the protein stability index stood at 2.75.
The figure for RPDTGDDAAGHGFCYCANSHKRKR is 2.85; for RPDTGDDAAGHGFCYCADSHKRKR it is 2.84; for RPDTGDDAAGHGFCYCAISHKRKR it is 2.9.
With RPDTGDDAAGHGFCYCARSHKRKR, the protein stability index was determined as 3.29.
With RPDTGDDAAGHGFCYCAMSHKRKR, the protein stability index was 2.71.
The figure for RPDTGDDAAGHGFCYCALSHKRKR is 2.66.
For the variant RPDTGDDAAGHGFCYCAYSHKRKR, the protein stability index came out at 2.98.
The figure for RPDTGDDAAGHGFCYCAESHKRKR is 3.6.
Consider RPDTGDDAAGHGFCYCAHSHKRKR, for which the protein stability index was determined as 2.53.
On to RPDTGDDAAGHGFCYCASSHKRKR, for which the protein stability index was determined as 3.36.
Consider RPDTGDDAAGHGFCYCACSHKRKR, for which the protein stability index turned out to be 2.77.
RPDTGDDAAGHGFCYCATSHKRKR: the protein stability index was 3.53.
With RPDTGDDAAGHGFCYCAPSHKRKR, the protein stability index was 3.53.
As to RPDTGDDAAGHGFCYCAGSHKNKR, the protein stability index stood at 2.62.
Take RPDTGDDAAGHGFCYCAGSHKFKR: the protein stability index stood at 1.96.
The figure for RPDTGDDAAGHGFCYCAGSHKMKR is 2.12; for RPDTGDDAAGHGFCYCAGSHKLKR it is 2.57.
For RPDTGDDAAGHGFCYCAGSHKGKR the value was 2.43.
For RPDTGDDAAGHGFCYCAGSHKYKR, the protein stability index amounted to 2.01.
As to RPDTGDDAAGHGFCYCAGSHKWKR, the protein stability index amounted to 2.6.
For the variant RPDTGDDAAGHGFCYCAGSHKSKR, the protein stability index amounted to 2.77.
Take RPDTGDDAAGHGFCYCAGSHKHKR: the protein stability index was 2.56.
Consider RPDTGDDAAGHGFCYCAGSHKEKR, for which the protein stability index was found to be 3.56.
RPDTGDDAAGHGFCYCAGSHKVKR: the protein stability index worked out at 2.65.
Turning to RPDTGDDAAGHGFCYCAGSHKCKR, the protein stability index was determined as 3.59.
For RPDTGDDAAGHGFCYCAGSHKAKR, the protein stability index stood at 2.76.
RPDTGDDAAGHGFCYCAGSHKDKR: the protein stability index came out at 3.55.
The figure for RPDTGDDAAGHGFCYCAGSHKQKR is 2.66.
Consider RPDTGDDAAGHGFCYCAGSHKIKR, for which the protein stability index was found to be 3.
Regarding RPDTGDDAAGHGFCYCAGSHKPKR, the protein stability index was 2.79.
For the variant RPDTGDDAAGHGFCYCAGSHKTKR, the protein stability index stood at 2.64.
As to RPDTGDDAAGHGFCYCAGSHKKKR, the protein stability index was determined as 3.08.
On to RPDTGDDAAGHGFCYCAGYHKRKR, for which the protein stability index was found to be 2.53.
For RPDTGDDAAGHGFCYCAGLHKRKR the value was 2.82; for RPDTGDDAAGHGFCYCAGQHKRKR, 3.16; for RPDTGDDAAGHGFCYCAGPHKRKR, 2.45.
For RPDTGDDAAGHGFCYCAGWHKRKR the value was 2.45.
Take RPDTGDDAAGHGFCYCAGAHKRKR: the protein stability index amounted to 3.62.
For the variant RPDTGDDAAGHGFCYCAGTHKRKR, the protein stability index amounted to 3.65.
For RPDTGDDAAGHGFCYCAGCHKRKR the value was 3.82; for RPDTGDDAAGHGFCYCAGGHKRKR, 3.14; for RPDTGDDAAGHGFCYCAGNHKRKR, 3.31.
Take RPDTGDDAAGHGFCYCAGVHKRKR: the protein stability index stood at 2.72.
Turning to RPDTGDDAAGHGFCYCAGFHKRKR, the protein stability index is 2.63.
Take RPDTGDDAAGHGFCYCAGEHKRKR: the protein stability index came to 2.98.
The figure for RPDTGDDAAGHGFCYCAGMHKRKR is 2.52.
The figure for RPDTGDDAAGHGFCYCAGHHKRKR is 2.77; for RPDTGDDAAGHGFCYCAGRHKRKR it is 3.26; for RPDTGDDAAGHGFCYCAGDHKRKR it is 2.86.
The figure for RPDTGDDAAGHGFCYCAGIHKRKR is 2.96; for RPDTGDDAAGHGFCYCAGKHKRKR it is 3.78; for RPDTGDDAAGHGFCYCAGSHKRKD it is 4.3.
Take RPDTGDDAAGHGFCYCAGSHKRKH: the protein stability index worked out at 4.13.
For RPDTGDDAAGHGFCYCAGSHKRKC the value was 4.32.
With RPDTGDDAAGHGFCYCAGSHKRKA, the protein stability index came out at 3.53.
For the variant RPDTGDDAAGHGFCYCAGSHKRKL, the protein stability index amounted to 2.66.
For the variant RPDTGDDAAGHGFCYCAGSHKRKG, the protein stability index stood at 3.4.
With RPDTGDDAAGHGFCYCAGSHKRKQ, the protein stability index came out at 3.35.
Turning to RPDTGDDAAGHGFCYCAGSHKRKN, the protein stability index came to 3.84.
The figure for RPDTGDDAAGHGFCYCAGSHKRKP is 3.94; for RPDTGDDAAGHGFCYCAGSHKRKM it is 2.77; for RPDTGDDAAGHGFCYCAGSHKRKW it is 2.87.
Turning to RPDTGDDAAGHGFCYCAGSHKRKT, the protein stability index worked out at 3.04.
On to RPDTGDDAAGHGFCYCAGSHKRKI, for which the protein stability index worked out at 3.33.
Consider RPDTGDDAAGHGFCYCAGSHKRKF, for which the protein stability index was determined as 3.18.
For the variant RPDTGDDAAGHGFCYCAGSHKRKE, the protein stability index came to 3.64.
For RPDTGDDAAGHGFCYCAGSHKRKY the value was 3.75.
For the variant RPDTGDDAAGHGFCYCAGSHKRKV, the protein stability index worked out at 3.38.
Take RPDTGDDAAGHGFCYCAGSHKRKK: the protein stability index was found to be 3.65.
For RPDTGDDAAGHGFCYCAGSHKRKS, the protein stability index was determined as 3.47.
As for RPDTGDDAAGHGFCYCAGSHKRRR, the protein stability index was found to be 2.37.
